In patent publication US20190336544A1:

Tests used:
[1] = molecular target: IgG (coating control in the ELISA binding assays); test: ELISA; IgG coated, culture supernatant
[2] = molecular target: T1, mouseCD47, coated on ELISA plates (mouse) (UniProt Q61735); test: ELISA; mCD47 coated, culture supernatant
T1 sequence (looked up): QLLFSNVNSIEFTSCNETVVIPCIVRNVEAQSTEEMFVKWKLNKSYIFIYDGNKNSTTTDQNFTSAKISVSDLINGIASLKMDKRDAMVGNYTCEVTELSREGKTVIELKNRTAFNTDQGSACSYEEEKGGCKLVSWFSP

- ELISA signal (quantity not given) [1]: 0.067
- ELISA signal (quantity not given) [2]: 0.527
B1: secreted anti-mCD47 scFv (αmCD47scFv-V5-HIS, SYN3161) (scFv, from a related filing)
scFv: QVKLLQSGAALVKPGASVKMSCQASGYSFTDYWVTWVKQSHGQSLEWIGEIYPSNTVTNFNDNFKGKATLTVDKSTSTAYMELSRLTSEDSAIYYCTRIGNSGYRVGWFIYWGQGTLVTVLSGGGGSGGGGSGGGGSDTVLTQSPALAVSPGERVTISCKASESVSSHMHWYQQKPGQQPKLLIYKASNLASGVPARFSGSGSGTDFTLTIDPVEADDTATYFCQQGWNGPFTFGAGTRLELKRADAAGSGELGGSGKPIPNPLLGLDSTGSGHHHHHH
